Data: article PMC4399976 (The Biochemical journal, 2015)

Molecular target: wild-type (WT) proMMP-9 trimer (reduction-sensitive homomultimer) (human, UniProt P14780 20-707)
Assay: SPR

Sequence of wild-type (WT) proMMP-9 trimer (reduction-sensitive homomultimer) (P14780 20-707): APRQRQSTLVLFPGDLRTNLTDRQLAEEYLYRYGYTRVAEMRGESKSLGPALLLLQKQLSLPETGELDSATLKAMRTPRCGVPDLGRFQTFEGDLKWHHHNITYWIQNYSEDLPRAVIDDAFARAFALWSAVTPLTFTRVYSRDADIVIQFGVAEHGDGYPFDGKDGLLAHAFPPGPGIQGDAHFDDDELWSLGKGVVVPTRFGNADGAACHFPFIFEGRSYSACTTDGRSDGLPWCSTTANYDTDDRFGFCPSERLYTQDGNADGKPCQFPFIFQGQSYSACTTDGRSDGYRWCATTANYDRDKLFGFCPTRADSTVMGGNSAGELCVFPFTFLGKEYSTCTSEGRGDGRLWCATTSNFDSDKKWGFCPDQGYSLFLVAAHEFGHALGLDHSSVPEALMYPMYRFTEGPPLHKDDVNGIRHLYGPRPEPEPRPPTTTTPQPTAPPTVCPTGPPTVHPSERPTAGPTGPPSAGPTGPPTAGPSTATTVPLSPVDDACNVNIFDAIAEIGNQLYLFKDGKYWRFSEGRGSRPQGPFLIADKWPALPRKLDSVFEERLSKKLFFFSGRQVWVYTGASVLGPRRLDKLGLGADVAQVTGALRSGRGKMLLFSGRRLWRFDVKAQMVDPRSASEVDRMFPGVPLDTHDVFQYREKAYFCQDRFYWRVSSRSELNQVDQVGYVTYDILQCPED

Kd: 0.4 nM
B1: tissue inhibitor of metalloproteinases-1 (TIMP-1), recombinant human (natural protein)
chain: not shown
